Experimental data taken from patent US10568950B1, “Peptides, combination of peptides and scaffolds for use in immunotherapeutic treatment of various cancers” (Immatics Biotechnologies GmbH, priority 2015, dated 2020).

Each substance was assayed against HLA-A*02 (Homo sapiens, UniProt P04439, D140Y/D185E/D98H/E176V/E277Q/G131W/G231S/I119V/I121R/I166T/I218V/N151K/N90K/P208A/P217A/Q86G/Q94H/R138H/R169H) (assay: MHC binding assay: UV-ligand exchange, beta2m ELISA (peptide exchange yield)). Details: binding to HLA-A*02, β2m ELISA.
Source text: Candidate peptides for T cell based therapies according to the present invention were further tested for their MHC binding capacity (affinity). The individual peptide-MHC complexes were produced by UV-ligand exchange, where a UV-sensitive peptide is cleaved upon UV-irradiation, and exchanged with the peptide of interest as analyzed. Only peptide candidates that can effectively bind and stabilize the peptide-receptive MHC molecules prevent dissociation of the MHC complexes. To determine the yield of the exchange reaction, an ELISA was performed based on the detection of the light chain (β2m) of stabilized MHC complexes. The assay was performed as generally described in Rodenko et al. (Rodenko et al., 2006).
96 well MAXISorp plates (NUNC) were coated over night with 2 ug/ml streptavidin in PBS at room temperature, washed 4× and blocked for 1 h at 37° C. in 2% BSA containing blocking buffer. […] Peptide-MHC monomers of the UV-exchange reaction were diluted 100 fold in blocking buffer. Samples were incubated for 1 h at 37° C., washed four times, incubated with 2 ug/ml HRP conjugated anti-βm for 1 h at 37° C., washed again and detected with TMB solution that is stopped with […]. Absorption was measured at 450 nm. Candidate peptides that show a high exchange yield (preferably higher than 50%, most preferred higher than 75%) are generally preferred for a generation and production of antibodies or fragments thereof, and/or T cell receptors or fragments thereof, as they show sufficient avidity to the MHC molecules and prevent dissociation of the MHC complexes.

| Peptide exchange (MHC class I binding score, peptide exchange yield) | Substance |
| --- | --- |
| ++ (20%-49% = ++) | 1 (PLWGKVFYL; listed as Homo sapiens) [compound 1] |
| +++ (50%-75% = +++) | 3 (TLLGKQVTL; listed as Homo sapiens) [compound 3] |
| +++ (50%-75% = +++) | 4 (ELAEIVFKV; listed as Homo sapiens) [compound 4] |
| +++ (50%-75% = +++) | 5 (SLFGQEVYC; listed as Homo sapiens) [compound 5] |
| +++ (50%-75% = +++) | 6 (FLDPAQRDL; listed as Homo sapiens) [compound 6] |
| ++ (20%-49% = ++) | 10 (KTLDVFNIIL; listed as Homo sapiens) [compound 10] |
| ++ (20%-49% = ++) | 11 (GVLKVFLENV; listed as Homo sapiens) [compound 11] |
| ++ (20%-49% = ++) | 12 (GLIYEETRGV; listed as Homo sapiens) [compound 12] |
| +++ (50%-75% = +++) | 13 (VLRDNIQGI; listed as Homo sapiens) [compound 13] |
| ++ (20%-49% = ++) | 14 (LLDHLSFINKI; listed as Homo sapiens) [compound 14] |
| ++ (20%-49% = ++) | 16 (HLYNNEEQV; listed as Homo sapiens) [compound 16] |
| +++ (50%-75% = +++) | 18 (YVLNEEDLQKV; listed as Homo sapiens) [compound 18] |
| +++ (50%-75% = +++) | 19 (TLLPTVLTL; listed as Homo sapiens) [compound 19] |
| +++ (50%-75% = +++) | 20 (ALDGHLYAI; listed as Homo sapiens) [compound 20] |
| ++++ (>= 75% = ++++) | 21 (SLYHRVLLY; listed as Homo sapiens) [compound 21] |
| ++++ (>= 75% = ++++) | 22 (MLSDLTLQL; listed as Homo sapiens) [compound 22] |
| + (<20% = +) | 23 (AQTVVVIKA; listed as Homo sapiens) [compound 23] |
| +++ (50%-75% = +++) | 24 (FLWNGEDSAL; listed as Homo sapiens) [compound 24] |
| ++ (20%-49% = ++) | 25 (IQADDFRTL; listed as Homo sapiens) [compound 25] |
| +++ (50%-75% = +++) | 26 (KVDGVVIQL; listed as Homo sapiens) [compound 26] |
| +++ (50%-75% = +++) | 27 (KVFGDLDQV; listed as Homo sapiens) [compound 27] |

| Peptide exchange (MHC class I binding score, peptide exchange yield) | Substance |
| --- | --- |
| +++ (50%-75% = +++) | 28 (TLYSMDLMKV; listed as Homo sapiens) [compound 28] |
| +++ (50%-75% = +++) | 29 (TLCNKTFTA; listed as Homo sapiens) [compound 29] |
| ++++ (>= 75% = ++++) | 31 (ALSDETKNNWEV; listed as Homo sapiens) [compound 31] |
| +++ (50%-75% = +++) | 32 (ILADEAFFSV; listed as Homo sapiens) [compound 32] |
| +++ (50%-75% = +++) | 33 (LLLPLLPPLSPSLG; listed as Homo sapiens) [compound 33] |
| ++ (20%-49% = ++) | 35 (YVLPKLYVKL; listed as Homo sapiens) [compound 35] |
| ++++ (>= 75% = ++++) | 36 (KLYGIEIEV; listed as Homo sapiens) [compound 36] |
| +++ (50%-75% = +++) | 37 (ALINDILGELVKL; listed as Homo sapiens) [compound 37] |
| +++ (50%-75% = +++) | 38 (KMQEDLVTL; listed as Homo sapiens) [compound 38] |
| +++ (50%-75% = +++) | 39 (ALMAVVSGL; listed as Homo sapiens) [compound 39] |
| +++ (50%-75% = +++) | 40 (SLLALPQDLQA; listed as Homo sapiens) [compound 40] |
| +++ (50%-75% = +++) | 41 (FVLPLVVTL; listed as Homo sapiens) [compound 41] |
| +++ (50%-75% = +++) | 42 (VLSPFILTL; listed as Homo sapiens) [compound 42] |
| ++ (20%-49% = ++) | 44 (GLLWQIIKV; listed as Homo sapiens) [compound 44] |
| +++ (50%-75% = +++) | 45 (VLGPTPELV; listed as Homo sapiens) [compound 45] |
| +++ (50%-75% = +++) | 46 (SLAKHGIVAL; listed as Homo sapiens) [compound 46] |
| +++ (50%-75% = +++) | 47 (GLYQAQVNL; listed as Homo sapiens) [compound 47] |
| ++ (20%-49% = ++) | 48 (TLDHKPVTV; listed as Homo sapiens) [compound 48] |
| +++ (50%-75% = +++) | 49 (LLDESKLTL; listed as Homo sapiens) [compound 49] |
| ++ (20%-49% = ++) | 50 (EYALLYHTL; listed as Homo sapiens) [compound 50] |
| +++ (50%-75% = +++) | 51 (LLLDGDFTL; listed as Homo sapiens) [compound 51] |

| Peptide exchange (MHC class I binding score, peptide exchange yield) | Substance |
| --- | --- |
| +++ (50%-75% = +++) | 52 (ELLSSIFFL; listed as Homo sapiens) [compound 52] |
| +++ (50%-75% = +++) | 53 (SLLSHVIVA; listed as Homo sapiens) [compound 53] |
| +++ (50%-75% = +++) | 54 (FINPKGNWLL; listed as Homo sapiens) [compound 54] |
| ++ (20%-49% = ++) | 55 (IASAIVNEL; listed as Homo sapiens) [compound 55] |
| ++ (20%-49% = ++) | 56 (KILDLTRVL; listed as Homo sapiens) [compound 56] |
| ++ (20%-49% = ++) | 57 (VLISSTVRL; listed as Homo sapiens) [compound 57] |
| ++ (20%-49% = ++) | 58 (ALDDSLTSL; listed as Homo sapiens) [compound 58] |
| +++ (50%-75% = +++) | 59 (ALTKILAEL; listed as Homo sapiens) [compound 59] |
| ++ (20%-49% = ++) | 60 (FLIDTSASM; listed as Homo sapiens) [compound 60] |
| ++ (20%-49% = ++) | 61 (HLPDFVKQL; listed as Homo sapiens) [compound 61] |
| +++ (50%-75% = +++) | 62 (SLFNQEVQI; listed as Homo sapiens) [compound 62] |
| + (<20% = +) | 63 (TLSSERDFAL; listed as Homo sapiens) [compound 63] |
| ++ (20%-49% = ++) | 64 (GLSSSSYEL; listed as Homo sapiens) [compound 64] |
| +++ (50%-75% = +++) | 65 (KLDGICWQV; listed as Homo sapiens) [compound 65] |
| +++ (50%-75% = +++) | 66 (FITDFYTTV; listed as Homo sapiens) [compound 66] |
| ++ (20%-49% = ++) | 67 (GVIETVTSL; listed as Homo sapiens) [compound 67] |
| +++ (50%-75% = +++) | 69 (GIYDGILHSI; listed as Homo sapiens) [compound 69] |
| +++ (50%-75% = +++) | 70 (GLFSQHFNL; listed as Homo sapiens) [compound 70] |
| +++ (50%-75% = +++) | 71 (GLITVDIAL; listed as Homo sapiens) [compound 71] |
| +++ (50%-75% = +++) | 72 (GMIGFQVLL; listed as Homo sapiens) [compound 72] |
| ++ (20%-49% = ++) | 74 (ILDETLENV; listed as Homo sapiens) [compound 74] |
